Residue numbers refer to the chain shown, from its start.
Columns and labels:
[1] = target: T1, human C4b (human) (UniProt P0C0L5)
T1 sequence: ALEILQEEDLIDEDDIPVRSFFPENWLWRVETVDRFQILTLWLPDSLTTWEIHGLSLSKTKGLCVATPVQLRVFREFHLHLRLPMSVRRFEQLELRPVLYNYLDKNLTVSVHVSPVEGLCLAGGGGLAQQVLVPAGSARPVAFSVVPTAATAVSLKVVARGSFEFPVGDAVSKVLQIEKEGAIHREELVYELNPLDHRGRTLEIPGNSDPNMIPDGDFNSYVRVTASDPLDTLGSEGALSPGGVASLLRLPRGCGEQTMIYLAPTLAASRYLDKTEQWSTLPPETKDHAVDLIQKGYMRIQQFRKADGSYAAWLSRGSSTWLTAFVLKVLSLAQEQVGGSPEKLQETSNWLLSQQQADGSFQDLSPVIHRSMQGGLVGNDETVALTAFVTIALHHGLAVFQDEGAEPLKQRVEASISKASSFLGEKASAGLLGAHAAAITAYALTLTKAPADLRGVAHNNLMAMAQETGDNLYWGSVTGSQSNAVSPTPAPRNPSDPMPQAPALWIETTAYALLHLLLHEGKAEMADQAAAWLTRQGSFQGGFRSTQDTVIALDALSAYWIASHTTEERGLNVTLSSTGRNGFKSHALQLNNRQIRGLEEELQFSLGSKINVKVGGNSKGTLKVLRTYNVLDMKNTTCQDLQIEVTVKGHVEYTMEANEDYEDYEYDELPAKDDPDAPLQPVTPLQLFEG

[2] = target: soluble human C3b (human) (UniProt P01024)
[3] = target: T2, human C4b (human) (UniProt P0C0L4)
T2 sequence: T1 sequence with T151A, G317D, L364P, S365C, I368L, H369D, S420N, A451V, R454L, A530S

Substance | C4b Screen Ref Fold (fold of CFI-HSA wild type) [1] | iC3b Screen Ref Fold (fold of CFI-HSA wild type) [2] | C4c EC50 [3] | C4b Screen Ref Fold (fold vs CFI-HSA wild type) [1] | iC3b Screen Ref Fold (fold vs CFI-HSA wild type) [2] | C4c EC50 (nM) [3]
CFI-HSA variant E457G; P535G; P558S (enzyme) | 3.18 | 0.81 | 186 nM | – | – | –
CFI-HSA variant E457G; E461Q-R462K; F464Y (enzyme) | – | – | – | 5.5 | 0.69 | 65.2 nM
CFI-HSA variant R321A (enzyme) | – | – | – | 0.22 | 0.55 | 897 nM
CFI-HSA variant Y408L; N531G; E461Q (enzyme) | – | – | – | 6.68 | 1.21 | 51.5 nM
CFI-HSA variant Y408L; E457G; E416A (enzyme) | 2.11 | 2.51 | – | – | – | 170 nM
CFI-HSA variant S552G; Y553H; F559L (enzyme) | 2.42 | 0.23 | 224 nM | – | – | –
CFI-HSA variant S552G; P558S (enzyme) | 1.96 | 2.1 | 375 nM | – | – | –
CFI-HSA variant Y408L; E457G; N531G; P558S (enzyme) | 5.27 | 0.86 | 26.6 nM | – | – | –
WT; GGSSGG (SEQ ID NO: 6); CR1(ccp15-17); GGSSGG (SEQ ID NO: 6); fH(ccp1-4) (enzyme) | – | – | – | 2.96 | 0.08 | 60.3 nM
CFI-HSA variant Y553H; P558S (enzyme) | 2.14 | 0.63 | 122 nM | – | – | –
CFI-HSA variant N531G; P535G; P558S (enzyme) | 3.82 | 0.95 | 136 nM | – | – | –
CFI-HSA variant Y553H (enzyme) | 4.13 | 0.52 | 85.5 nM | – | – | 166 nM
CFI-HSA variant E457G; K534Q (enzyme) | 5.24 | 1.15 | 55.2 nM | – | – | –
CFI-HSA variant N531G; E457G; E461Q; F464Y (enzyme) | – | – | – | 6.8 | 0.27 | 44.1 nM
CFI-HSA variant E457G; N531G; E461Q; R462K; F464Y (enzyme) | – | – | – | 5.97 | 0.83 | 37.9 nM
CFI-HSA variant S552G; Y553H; V565I (enzyme) | 2.57 | 0.37 | 207 nM | – | – | –
CFI-HSA variant Y408L; E457G; D425R; E416A (enzyme) | 2.03 | 3.02 | – | – | – | 181 nM
CFI-HSA variant E457G; N531G; P535G; D425K (enzyme) | 5.2 | 1.3 | 39.4 nM | – | – | –
CFI-HSA variant Y408L; E457G; D425K (enzyme) | 5.47 | 1.21 | 102 nM | – | – | –
CFI-HSA variant Y408L; N531G; D425R; E416A (enzyme) | 1.41 | 2.15 | – | – | – | 60.6 nM
CFI-HSA variant Y408L; E457G; N531G; P535G (enzyme) | 5.28 | 1.06 | 50.5 nM | – | – | –
CFI-HSA variant Y408F; N531G (enzyme) | – | – | – | 5.78 | 1.24 | 75.7 nM

Substance | C4b Screen Ref Fold (fold of CFI-HSA wild type) [1] | iC3b Screen Ref Fold (fold of CFI-HSA wild type) [2] | C4c EC50 [3] | C4b Screen Ref Fold (fold vs CFI-HSA wild type) [1] | iC3b Screen Ref Fold (fold vs CFI-HSA wild type) [2] | C4c EC50 (nM) [3]
CFI-HSA variant Y408L; N531G; P558S (enzyme) | 5.11 | 1.05 | 77.5 nM | – | – | –
CFI-HSA variant S552G; Y553H; V565I; P558S (enzyme) | 3.5 | 0.66 | 108 nM | – | – | –
CFI-HSA variant Y408L; N531G; P535G; D425K (enzyme) | 2.94 | 1.38 | 65.4 nM | – | – | –
CFI-HSA variant Y408L; N531G; D425K (enzyme) | 4.99 | 1.43 | 50.1 nM | – | – | –
CFI-HSA variant S552G; Y553H; P558S (enzyme) | 2.04 | 0.44 | 139 nM | – | – | –
CFI-HSA variant Y408L; E457G; P558S (enzyme) | 4.59 | 0.97 | 67.3 nM | – | – | –
CFI-HSA variant E487A (enzyme) | 1.47 | 1.38 | 104 nM | – | – | –
CFI-HSA variant Y408L; N531G; E457G (enzyme) | – | – | – | 6.16 | 0.63 | 94.4 nM
CFI-HSA variant Y408L; N531G; E461Q; R462K; F464Y (enzyme) | – | – | – | 5.97 | 0.92 | 82.7 nM
CFI-HSA variant Y408L; E457G; N531G; E416A (enzyme) | 4.66 | 2.15 | – | – | – | 34.8 nM
CFI-HSA variant Y408L; N531G; E457G; R462K; F464Y (enzyme) | – | – | – | 6.16 | 0.84 | 45.8 nM
CFI-HSA variant Y408L; N531G; N422K (enzyme) | 3.78 | 1.94 | 83.7 nM | – | – | –
CFI-HSA variant N531G; P535G; D425K (enzyme) | 4.53 | 1.35 | 78.9 nM | – | – | –
CFI-HSA variant Y408L; N531G; E457G; E461Q (enzyme) | – | – | – | 4.63 | 0.39 | 84.8 nM
CFI-HSA variant K488E (enzyme) | 0.78 | 1.07 | > 1000 nM | – | – | –
CFI-HSA variant E487K (enzyme) | 1.11 | 1.35 | 119 nM | – | – | –
CFI-HSA variant Y408L; N531G; E457G; E461Q; F464Y (enzyme) | – | – | – | 6.12 | 0.51 | 79.9 nM
CFI-HSA variant N531G; D425R; E416A (enzyme) | 2.64 | 3.03 | – | – | – | 81.4 nM
CFI-HSA variant Y408L; E457G; E461Q; R462K; F464Y (enzyme) | – | – | – | 5.78 | 0.86 | 163 nM
CFI-HSA variant Y408L; N531G; E457G; E461Q; R462K (enzyme) | – | – | – | 6.07 | 0.64 | 60 nM
CFI-HSA variant Y408P (enzyme) | – | – | – | -0.01 | 0.02 | 338 nM
CFI-HSA variant E457G; N531G; P535G; N422K (enzyme) | 4.46 | 1.87 | 51.6 nM | – | – | –

Reference: US20230038638A1, “COMPLEMENT FACTOR I-RELATED COMPOSITIONS AND METHODS” (published 2023)
